The target in assay [1] is T1, PTPRD G203E K204E variant extracellular domain (human, UniProt P23468 21-1265).
T1 construct: extracellular domain; also called G203E/K204E double mutant; IG2 mutant
T1 sequence (looked up): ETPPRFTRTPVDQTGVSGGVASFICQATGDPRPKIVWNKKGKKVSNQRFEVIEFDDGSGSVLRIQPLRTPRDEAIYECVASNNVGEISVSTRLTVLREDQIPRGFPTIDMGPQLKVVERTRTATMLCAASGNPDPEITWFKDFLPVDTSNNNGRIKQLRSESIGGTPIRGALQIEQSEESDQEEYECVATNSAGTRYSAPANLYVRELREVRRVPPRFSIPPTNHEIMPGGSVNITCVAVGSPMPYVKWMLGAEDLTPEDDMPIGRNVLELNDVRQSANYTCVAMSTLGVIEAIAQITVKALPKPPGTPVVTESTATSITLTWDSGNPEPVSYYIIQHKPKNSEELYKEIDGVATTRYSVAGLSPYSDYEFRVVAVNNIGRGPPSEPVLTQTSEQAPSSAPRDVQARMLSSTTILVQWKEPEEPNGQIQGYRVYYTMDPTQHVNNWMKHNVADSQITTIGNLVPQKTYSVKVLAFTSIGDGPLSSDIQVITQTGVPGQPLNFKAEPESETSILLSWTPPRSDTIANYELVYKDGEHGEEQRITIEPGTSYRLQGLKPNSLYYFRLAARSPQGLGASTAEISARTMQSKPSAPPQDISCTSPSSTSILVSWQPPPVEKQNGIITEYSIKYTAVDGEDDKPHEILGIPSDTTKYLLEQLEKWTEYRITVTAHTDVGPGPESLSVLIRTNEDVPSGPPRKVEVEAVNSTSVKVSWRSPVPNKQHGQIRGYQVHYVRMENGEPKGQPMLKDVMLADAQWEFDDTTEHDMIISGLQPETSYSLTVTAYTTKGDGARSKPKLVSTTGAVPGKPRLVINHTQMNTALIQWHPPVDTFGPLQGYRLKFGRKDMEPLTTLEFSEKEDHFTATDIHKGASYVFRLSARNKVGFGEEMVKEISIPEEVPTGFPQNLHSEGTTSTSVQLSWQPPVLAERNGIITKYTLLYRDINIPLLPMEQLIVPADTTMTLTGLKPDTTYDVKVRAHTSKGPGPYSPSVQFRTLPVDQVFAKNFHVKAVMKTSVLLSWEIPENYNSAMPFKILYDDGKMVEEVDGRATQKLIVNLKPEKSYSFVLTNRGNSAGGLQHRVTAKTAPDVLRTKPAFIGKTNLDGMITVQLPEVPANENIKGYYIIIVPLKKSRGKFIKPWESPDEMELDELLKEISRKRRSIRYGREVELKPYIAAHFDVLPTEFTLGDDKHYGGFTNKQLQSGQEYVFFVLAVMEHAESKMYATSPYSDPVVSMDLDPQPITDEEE
Put plainly: extracellular interaction screen: pentameric PTPRD variant ECD on ECD-Fc prey (FIG. 5L).

Assay [2] deals with T2, CHL1 extracellular domain (human, UniProt O00533 25-1082).
T2 construct: extracellular domain; Soluble query (streptavidin tetramer) in cell assays; recombinant protein (R&D) in SPR; also called neural cell adhesion molecule L1-like protein; close homolog of L1
T2 sequence (looked up): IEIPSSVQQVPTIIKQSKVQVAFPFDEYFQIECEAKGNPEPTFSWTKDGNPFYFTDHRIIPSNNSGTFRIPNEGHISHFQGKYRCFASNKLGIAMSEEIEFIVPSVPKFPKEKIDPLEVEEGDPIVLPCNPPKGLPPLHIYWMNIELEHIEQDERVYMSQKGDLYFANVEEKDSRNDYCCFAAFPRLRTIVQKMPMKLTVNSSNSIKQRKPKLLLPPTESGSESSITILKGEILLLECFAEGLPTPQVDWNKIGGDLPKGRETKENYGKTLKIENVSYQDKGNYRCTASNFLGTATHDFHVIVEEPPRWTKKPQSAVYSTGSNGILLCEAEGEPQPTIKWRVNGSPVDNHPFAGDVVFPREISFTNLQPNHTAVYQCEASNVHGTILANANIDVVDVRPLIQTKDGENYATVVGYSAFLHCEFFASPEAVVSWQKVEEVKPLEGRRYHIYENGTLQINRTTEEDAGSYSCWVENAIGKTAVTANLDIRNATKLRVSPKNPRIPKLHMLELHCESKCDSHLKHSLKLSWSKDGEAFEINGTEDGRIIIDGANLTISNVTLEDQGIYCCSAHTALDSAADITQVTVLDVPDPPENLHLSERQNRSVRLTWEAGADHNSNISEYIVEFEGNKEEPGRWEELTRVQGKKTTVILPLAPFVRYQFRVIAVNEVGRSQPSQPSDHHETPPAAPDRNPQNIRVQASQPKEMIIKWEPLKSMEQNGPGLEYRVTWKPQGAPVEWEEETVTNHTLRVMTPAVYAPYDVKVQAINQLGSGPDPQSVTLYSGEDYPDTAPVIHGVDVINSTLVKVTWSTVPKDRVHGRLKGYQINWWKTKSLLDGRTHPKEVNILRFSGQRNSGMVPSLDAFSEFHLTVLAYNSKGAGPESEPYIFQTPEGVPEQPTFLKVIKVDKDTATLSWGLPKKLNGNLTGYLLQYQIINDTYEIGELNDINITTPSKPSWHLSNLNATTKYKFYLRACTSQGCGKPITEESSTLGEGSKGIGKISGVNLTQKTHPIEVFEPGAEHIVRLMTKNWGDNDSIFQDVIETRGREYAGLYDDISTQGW
The assay can be described thus: SPR, CHL1 immobilized, CNTN1 ECD-Fc injected at 250 nM. (In general: Surface plasmon resonance follows binding to a sensor surface in real time, without labels.)

The next assay addresses T3, PTPRD expressed on cells (human, UniProt P23468 21-1912).
T3 construct: whole, on cells; also called receptor-type tyrosine-protein phosphatase delta
Put plainly: cell surface interaction assay: query ECD tetramerised with fluorescent streptavidin on transfected cells, immunofluorescence.

For the next assay, the target named is T4, PTPRG expressed on cells (human, UniProt P23470 20-1445).
T4 construct: whole, on cells
The description is as above.

The target of the next assay is T5, PTPRF expressed on cells (human, UniProt P10586 30-1907).
T5 construct: whole, on cells; also called receptor-type tyrosine-protein phosphatase F
The assay is described as above.

A further assay has as its target T6, PTPRM expressed on cells (human, UniProt P28827 21-1452).
T6 construct: whole, on cells
The assay is described as above.

A further assay deals with T7, PTPRS expressed on cells (human, UniProt Q13332 30-1948).
T7 construct: whole, on cells; also called receptor-type tyrosine-protein phosphatase S
Described as above.

The values below come from US20220119490A1 (Genentech, published 2022).

T5 sequence (P10586 30-1907): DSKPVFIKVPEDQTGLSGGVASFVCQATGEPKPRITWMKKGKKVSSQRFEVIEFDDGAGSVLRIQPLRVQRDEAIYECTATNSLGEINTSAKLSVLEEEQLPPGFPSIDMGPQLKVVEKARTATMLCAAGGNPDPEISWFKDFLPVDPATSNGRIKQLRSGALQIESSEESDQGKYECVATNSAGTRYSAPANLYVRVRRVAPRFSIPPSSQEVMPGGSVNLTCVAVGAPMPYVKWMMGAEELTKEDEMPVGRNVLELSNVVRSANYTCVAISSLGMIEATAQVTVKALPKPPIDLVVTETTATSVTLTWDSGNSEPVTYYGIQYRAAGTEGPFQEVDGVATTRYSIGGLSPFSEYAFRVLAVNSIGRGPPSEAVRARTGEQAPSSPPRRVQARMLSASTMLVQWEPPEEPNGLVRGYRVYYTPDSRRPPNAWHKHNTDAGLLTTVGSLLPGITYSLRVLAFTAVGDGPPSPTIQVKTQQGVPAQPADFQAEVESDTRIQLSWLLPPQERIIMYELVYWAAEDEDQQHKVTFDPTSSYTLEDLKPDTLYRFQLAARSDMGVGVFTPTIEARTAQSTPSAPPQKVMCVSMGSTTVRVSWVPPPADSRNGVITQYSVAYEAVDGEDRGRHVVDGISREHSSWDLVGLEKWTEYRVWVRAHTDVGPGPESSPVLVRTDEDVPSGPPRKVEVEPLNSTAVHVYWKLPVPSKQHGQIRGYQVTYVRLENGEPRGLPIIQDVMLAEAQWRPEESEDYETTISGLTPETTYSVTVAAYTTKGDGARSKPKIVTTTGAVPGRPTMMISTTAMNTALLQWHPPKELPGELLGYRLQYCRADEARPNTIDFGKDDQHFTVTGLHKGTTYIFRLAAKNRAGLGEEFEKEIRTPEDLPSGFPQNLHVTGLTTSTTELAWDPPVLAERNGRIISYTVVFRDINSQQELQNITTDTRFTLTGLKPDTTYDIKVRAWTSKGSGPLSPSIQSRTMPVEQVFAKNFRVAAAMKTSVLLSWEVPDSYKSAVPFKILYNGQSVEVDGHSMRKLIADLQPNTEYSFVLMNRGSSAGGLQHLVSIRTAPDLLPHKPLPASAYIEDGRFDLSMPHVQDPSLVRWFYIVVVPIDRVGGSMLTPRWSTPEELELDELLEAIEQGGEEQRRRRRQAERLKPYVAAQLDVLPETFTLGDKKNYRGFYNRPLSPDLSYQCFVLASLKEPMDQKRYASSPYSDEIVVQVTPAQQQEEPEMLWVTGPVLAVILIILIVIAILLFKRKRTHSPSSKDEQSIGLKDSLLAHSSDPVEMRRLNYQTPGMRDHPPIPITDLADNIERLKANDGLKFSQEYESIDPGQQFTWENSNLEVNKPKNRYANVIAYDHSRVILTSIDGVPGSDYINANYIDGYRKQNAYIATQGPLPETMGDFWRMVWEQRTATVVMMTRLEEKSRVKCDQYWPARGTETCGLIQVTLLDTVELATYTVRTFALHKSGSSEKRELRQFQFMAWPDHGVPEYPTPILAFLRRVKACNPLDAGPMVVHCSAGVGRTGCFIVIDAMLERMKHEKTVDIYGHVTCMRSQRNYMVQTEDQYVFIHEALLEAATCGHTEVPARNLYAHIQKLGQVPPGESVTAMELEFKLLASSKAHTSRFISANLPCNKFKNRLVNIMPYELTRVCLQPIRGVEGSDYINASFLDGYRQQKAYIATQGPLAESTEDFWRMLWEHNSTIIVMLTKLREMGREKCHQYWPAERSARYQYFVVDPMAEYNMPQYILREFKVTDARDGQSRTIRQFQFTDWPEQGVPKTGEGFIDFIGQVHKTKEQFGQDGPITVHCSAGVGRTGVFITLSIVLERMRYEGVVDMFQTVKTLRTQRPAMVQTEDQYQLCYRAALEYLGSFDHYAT
T6 sequence (P28827 21-1452): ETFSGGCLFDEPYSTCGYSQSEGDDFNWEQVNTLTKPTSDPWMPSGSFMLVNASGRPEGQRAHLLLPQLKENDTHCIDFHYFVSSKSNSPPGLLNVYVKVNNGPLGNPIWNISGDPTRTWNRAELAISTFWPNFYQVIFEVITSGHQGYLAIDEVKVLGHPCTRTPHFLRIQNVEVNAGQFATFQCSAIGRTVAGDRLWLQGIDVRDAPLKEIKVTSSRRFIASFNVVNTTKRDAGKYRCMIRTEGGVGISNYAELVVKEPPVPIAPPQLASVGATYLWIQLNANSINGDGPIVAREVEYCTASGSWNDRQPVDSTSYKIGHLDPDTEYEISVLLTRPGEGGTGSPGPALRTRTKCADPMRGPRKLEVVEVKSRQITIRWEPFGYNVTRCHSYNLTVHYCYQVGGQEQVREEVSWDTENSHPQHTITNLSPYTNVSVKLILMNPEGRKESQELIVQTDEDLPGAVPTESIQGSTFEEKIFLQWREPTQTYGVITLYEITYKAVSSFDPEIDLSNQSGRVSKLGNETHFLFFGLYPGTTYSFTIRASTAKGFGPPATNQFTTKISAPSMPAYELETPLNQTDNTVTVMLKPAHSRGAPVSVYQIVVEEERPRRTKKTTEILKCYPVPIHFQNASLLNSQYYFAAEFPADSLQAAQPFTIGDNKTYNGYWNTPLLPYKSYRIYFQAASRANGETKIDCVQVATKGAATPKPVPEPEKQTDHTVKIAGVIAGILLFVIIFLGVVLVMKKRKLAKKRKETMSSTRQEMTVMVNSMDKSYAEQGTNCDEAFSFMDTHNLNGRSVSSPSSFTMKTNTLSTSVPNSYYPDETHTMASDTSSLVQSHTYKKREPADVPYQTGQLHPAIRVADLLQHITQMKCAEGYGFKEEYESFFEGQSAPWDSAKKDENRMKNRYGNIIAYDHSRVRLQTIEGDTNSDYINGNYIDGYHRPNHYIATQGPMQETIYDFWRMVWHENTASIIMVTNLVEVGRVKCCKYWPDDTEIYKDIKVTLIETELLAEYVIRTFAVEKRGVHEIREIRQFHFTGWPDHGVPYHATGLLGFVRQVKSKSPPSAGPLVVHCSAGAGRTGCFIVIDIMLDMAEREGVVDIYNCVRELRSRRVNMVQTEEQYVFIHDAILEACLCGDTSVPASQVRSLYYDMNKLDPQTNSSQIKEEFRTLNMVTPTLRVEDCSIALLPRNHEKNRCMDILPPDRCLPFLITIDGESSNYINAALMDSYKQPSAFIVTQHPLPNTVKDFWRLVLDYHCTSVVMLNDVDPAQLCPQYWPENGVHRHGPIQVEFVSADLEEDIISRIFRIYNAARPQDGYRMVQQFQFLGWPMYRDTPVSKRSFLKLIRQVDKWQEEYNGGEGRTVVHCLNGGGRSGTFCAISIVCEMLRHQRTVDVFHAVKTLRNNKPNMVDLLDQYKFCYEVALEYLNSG
T4 sequence (P23470 20-1445): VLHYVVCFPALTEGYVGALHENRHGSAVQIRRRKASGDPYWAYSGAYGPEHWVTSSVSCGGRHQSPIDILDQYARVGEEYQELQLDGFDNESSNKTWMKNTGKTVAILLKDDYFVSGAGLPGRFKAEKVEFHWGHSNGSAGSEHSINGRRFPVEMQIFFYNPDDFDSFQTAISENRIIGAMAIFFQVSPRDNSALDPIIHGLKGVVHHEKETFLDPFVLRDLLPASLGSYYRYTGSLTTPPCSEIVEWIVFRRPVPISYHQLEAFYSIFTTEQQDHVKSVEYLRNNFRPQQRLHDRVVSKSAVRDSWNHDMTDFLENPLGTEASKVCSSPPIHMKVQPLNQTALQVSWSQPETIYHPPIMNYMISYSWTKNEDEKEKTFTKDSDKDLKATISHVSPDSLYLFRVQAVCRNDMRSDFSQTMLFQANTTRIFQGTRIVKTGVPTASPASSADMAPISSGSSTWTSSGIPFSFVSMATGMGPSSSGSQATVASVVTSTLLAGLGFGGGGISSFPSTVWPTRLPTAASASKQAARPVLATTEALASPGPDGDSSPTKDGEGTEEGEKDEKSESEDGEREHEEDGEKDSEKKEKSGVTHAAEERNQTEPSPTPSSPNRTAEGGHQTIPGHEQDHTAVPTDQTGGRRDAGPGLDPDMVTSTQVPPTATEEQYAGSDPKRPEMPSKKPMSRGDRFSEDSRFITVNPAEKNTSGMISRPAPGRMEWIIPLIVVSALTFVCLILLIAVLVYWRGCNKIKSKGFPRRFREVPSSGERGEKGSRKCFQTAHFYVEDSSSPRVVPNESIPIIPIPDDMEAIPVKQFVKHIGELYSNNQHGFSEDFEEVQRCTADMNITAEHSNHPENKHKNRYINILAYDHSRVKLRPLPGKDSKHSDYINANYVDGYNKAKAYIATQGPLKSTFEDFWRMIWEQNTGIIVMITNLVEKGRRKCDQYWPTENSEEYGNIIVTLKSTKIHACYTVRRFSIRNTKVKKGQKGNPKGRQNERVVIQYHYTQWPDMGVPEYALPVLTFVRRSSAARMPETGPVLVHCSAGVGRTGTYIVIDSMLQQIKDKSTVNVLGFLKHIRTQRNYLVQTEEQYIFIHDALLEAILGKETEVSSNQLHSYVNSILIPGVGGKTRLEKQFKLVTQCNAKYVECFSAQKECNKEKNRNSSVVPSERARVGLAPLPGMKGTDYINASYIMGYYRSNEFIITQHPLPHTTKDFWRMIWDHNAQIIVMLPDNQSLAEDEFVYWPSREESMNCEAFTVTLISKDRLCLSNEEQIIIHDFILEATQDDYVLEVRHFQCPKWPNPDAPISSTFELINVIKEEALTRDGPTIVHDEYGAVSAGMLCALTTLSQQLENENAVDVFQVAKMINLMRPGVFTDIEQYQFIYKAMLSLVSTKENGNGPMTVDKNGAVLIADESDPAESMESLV

B1: LRFN5 extracellular domain (receptor, human, UniProt Q96NI6 18-529, looked up)
chain: QICPKRCVCQILSPNLATLCAKKGLLFVPPNIDRRTVELRLADNFVTNIKRKDFANMTSLVDLTLSRNTISFITPHAFADLRNLRALHLNSNRLTKITNDMFSGLSNLHHLILNNNQLTLISSTAFDDVFALEELDLSYNNLETIPWDAVEKMVSLHTLSLDHNMIDNIPKGTFSHLHKMTRLDVTSNKLQKLPPDPLFQRAQVLATSGIISPSTFALSFGGNPLHCNCELLWLRRLSREDDLETCASPPLLTGRYFWSIPEEEFLCEPPLITRHTHEMRVLEGQRATLRCKARGDPEPAIHWISPEGKLISNATRSLVYDNGTLDILITTVKDTGAFTCIASNPAGEATQIVDLHIIKLPHLLNSTNHIHEPDPGSSDISTSTKSGSNTSSSNGDTKLSQDKIVVAEATSSTALLKFNFQRNIPGIRMFQIQYNGTYDDTLVYRMIPPTSKTFLVNNLAAGTMYDLCVLAIYDDGITSLTATRVVGCIQFTTEQDYVRCHFMQSQFLGGTM
notes: extracellular domain; Streptavidin tetramer in cell assay; ECD-Fc prey in the variant screen; also called LFRN5
As to B1, the binding result in assay [1] is given as “no binding”.

B2: LRRC4B extracellular domain (receptor, human, UniProt Q9NT99 36-576, looked up)
chain: AGGGGVAVTSAAGGGSPPATSCPVACSCSNQASRVICTRRDLAEVPASIPVNTRYLNLQENGIQVIRTDTFKHLRHLEILQLSKNLVRKIEVGAFNGLPSLNTLELFDNRLTTVPTQAFEYLSKLRELWLRNNPIESIPSYAFNRVPSLRRLDLGELKRLEYISEAAFEGLVNLRYLNLGMCNLKDIPNLTALVRLEELELSGNRLDLIRPGSFQGLTSLRKLWLMHAQVATIERNAFDDLKSLEELNLSHNNLMSLPHDLFTPLHRLERVHLNHNPWHCNCDVLWLSWWLKETVPSNTTCCARCHAPAGLKGRYIGELDQSHFTCYAPVIVEPPTDLNVTEGMAAELKCRTGTSMTSVNWLTPNGTLMTHGSYRVRISVLHDGTLNFTNVTVQDTGQYTCMVTNSAGNTTASATLNVSAVDPVAAGGTGSGGGGPGGSGGVGGGSGGYTYFTTVTVETLETQPGEEALQPRGTEKEPPGPTTDGVWGGGRPGDAAGPASSSTTAPAPRSSRPTEKAFTVPITDVTENALKDLDDVMKTTK
notes: extracellular domain; ECD-Fc prey; also called NGL-3; netrin-G ligand-3
As to B2, the binding result in assay [1] was “no binding”.

B3: CNTN1 extracellular domain (receptor, human, UniProt Q12860 21-993, looked up)
chain: EFTWYRRYGHGVSEEDKGFGPIFEEQPINTIYPEESLEGKVSLNCRARASPFPVYKWRMNNGDVDLTSDRYSMVGGNLVINNPDKQKDAGIYYCLASNNYGMVRSTEATLSFGYLDPFPPEERPEVRVKEGKGMVLLCDPPYHFPDDLSYRWLLNEFPVFITMDKRRFVSQTNGNLYIANVEASDKGNYSCFVSSPSITKSVFSKFIPLIPIPERTTKPYPADIVVQFKDVYALMGQNVTLECFALGNPVPDIRWRKVLEPMPSTAEISTSGAVLKIFNIQLEDEGIYECEAENIRGKDKHQARIYVQAFPEWVEHINDTEVDIGSDLYWPCVATGKPIPTIRWLKNGYAYHKGELRLYDVTFENAGMYQCIAENTYGAIYANAELKILALAPTFEMNPMKKKILAAKGGRVIIECKPKAAPKPKFSWSKGTEWLVNSSRILIWEDGSLEINNITRNDGGIYTCFAENNRGKANSTGTLVITDPTRIILAPINADITVGENATMQCAASFDPALDLTFVWSFNGYVIDFNKENIHYQRNFMLDSNGELLIRNAQLKHAGRYTCTAQTIVDNSSASADLVVRGPPGPPGGLRIEDIRATSVALTWSRGSDNHSPISKYTIQTKTILSDDWKDAKTDPPIIEGNMEAARAVDLIPWMEYEFRVVATNTLGRGEPSIPSNRIKTDGAAPNVAPSDVGGGGGRNRELTITWAPLSREYHYGNNFGYIVAFKPFDGEEWKKVTVTNPDTGRYVHKDETMSPSTAFQVKVKAFNNKGDGPYSLVAVINSAQDAPSEAPTEVGVKVLSSSEISVHWEHVLEKIVESYQIRYWAAHDKEEAANRVQVTSQEYSARLENLLPDTQYFIEVGACNSAGCGPPSDMIEAFTKKAPPSQPPRIISSVRSGSRYIITWDHVVALSNESTVTGYKVLYRPDGQHDGKLYSTHKHSIEVPIPRDGEYVVEVRAHSDGGDGVVSQVKIS
notes: extracellular domain; Streptavidin tetramer in cell assays; ECD-Fc in SPR; also called contactin 1
Turning to B3, the binding result in assay [2] is recorded as “binds”; in the assay with PTPRD expressed on cells, “no binding”; in the assay with PTPRG expressed on cells, “no binding”; in the assay with PTPRF expressed on cells it was “no binding”; in the assay with PTPRM expressed on cells it was “no binding”; with PTPRS expressed on cells, “no binding”.
